Experiment: protease stability score; higher = more stable; yeast display proteolysis, trypsin and chymotrypsin;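 further: relative to predicted unfolded state with 0 unfolded-like and 1 meaning tenfold more protease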

Row | Sequence | protease stability score
1 | DEEEHELLHFVHLWIDILRTGDWEKISEYADPNVKLIVGDKIFIGMEAFIEFMERFLRRVDHVQYEIRSIRAYDGVIEMHTEVREHQGDKEIHTEVHITFFVYNGVKKHIEIRIK | 2.48
2 | DEEEHELQEAIEILKHDIETGNWERFVKRADPHARIRFNGRDLHGWERMKEVFEHVSKEFQNQKVEFETEHYFDGRVEVIVNIRIGDKNIHMRIISDKINGQWITREVRFH | 1.41
3 | DEEEHEWRKVIHELLHAFMTGDWKRFLKLVDPHAKFLVDGQEMHGREVLKHYIDRIKNMRIEIRDETYDMVDGRMHSIFQLELTQGEYRHESYIEVIIKKFDGRWRVHEVDFEIR | 2.18
4 | DEEEHHIKTLLELHWEIWKTGDEDRFRELADPNTKLIVNGREVIGRERVAKVIHDILRHMRFHDFTLERDKIYNGQVDLHGTEYGHINGKNIERTHVFHIVIVNGVLKSIELRIH | 1.01
5 | DEEEHHMKLAYDILLQTLRTGDEDLMERLIDPNVRFELLIGDFILHIHGWELVVEWDIRIARQWRIEHVHIKRYEVFNGRSRVNVKIDGVVNGRRYRFDIIELSLVIDGRVHHRSQEII | 0.835
6 | DEEEHIARHIFEHFITWLLTGDEEVLKDLADPNVRLDINGRHVVGREEFRRWLKEDLEHLRIHDMDLRRVRVQGNKMDLDVQVDGIVNGQHRHHNTRLIFEKVDGRWLLRSIIVK | 2.16
7 | DEEEHIERTFKDLFEHALETGDEHLLKRLLDPHARFDINGRDFHGREEVRRFWEETEKKLGIKHSEFRFRRRDHQGDFVRIDLHVIIFIGDKIEHREVEFFLTKIDGVWMIREVRVR | 0.613
8 | DEEEHIFQELIELWQTAMATGDEERTDRLLDPNAKIVINGVELHGMDEIKRLLEQMRLHVHDVKIDEIKFQGDYLHIDTTSDIIMRINGREHRIIVKTTVRMLKFDGRWWLHVISIR | 1.93
9 | DEEEHIMKHELEKWWETVDTGDEDEMLRLADPNVRVDFNGREFVGREEFLKHVEFMVKEWRLTDRRIEREHVIDGKMIIHMRVHGTFNGKETDTRIEIILHVVDGKVKSEEYRIK | 2.06
10 | DEEEHIMRRVTDILVHYIATGDEDSLTRLLDPHARIIIDGRTIHGREWIQHHLRRIDHIHMHSYHIHDIRIQGDKVYADQEIDVEHRVNGVTIRKRFHVNIITVKVNGQWYLHSINNQ | 1.45
11 | DEEEHKSKLAVELWHKVEETGDENTMKRLADPNVRIDINGVELHGMEVLVRRLREMGADHFHVDLRRVTVVNGRVHVNTEVIIRQGDKVIILTTRLHIEKVDGRWKITTIEFE | 1.32
12 | DEEEHLARKIATIMIHTLITGNEEEMRRLADPTTRFHDEDHTFHGMEEYNRFIKEWRERFPGVKEEWKIRHIHVINGVAHFDIELRIIVGDKEVSDRVEFIIVVVDGRVKSFELRHK | 2.15
13 | DEEEHLLRRVSHFWARARKTGNEEVIRDLMDPNMRSTINGVEFHGREEHLHTLREWRVKSVHFEHVHVVDGRIEIKMREDGFVNGRETHFTLRITIVIIDGVVHHISIDLR | 0.787
14 | DEEEHLMREALNTFMRTLETGDERQLNELLDPDVRSRVDGQDLHGREHVVRLFEEFRRQARIHHVDVHHMDVIGDWIRVELRVDIRIGDKLYTYKKHIVALKVDGRWFMHRVEIH | 0.773
15 | DEEEHLSKEAVRLYIESLHTGDEDLWRSLMDPNARLHINGREFHGMERVLRILREIRIKDTRIRDFHVVNGQVHNRMELEIKVGDKERSFDVELIAYKIDGRWITKSVIHH | 1.29
16 | DEEEHNLKKFLEIFLKAERTGDEEALRRMLDPNTKFVVGDKTYHGREEYIRWLNEIRIHRTEDKHIEVQGNKLHMDTRRRMEIDGREIDTEVRLELEVINGVVKLIIVDIR | 1.86
17 | DEEEHNSQYAEELHIHLQETGDFEEFKKNVDPHVRLHSEINGKELRLHGRKIAEWLIEFWIKRIPNATIELHDSSIYNGKMHLDQRIKIGDKSMIVIVILEKVNGVWRVREMHITVR | 1.37
18 | DEEEHRIIRFIKKVLDDIVTGDWDSFRRNLDPNAKLSAEFEGRREEHVGRDIATRWMREIRIHDMEIKDMRLIDGVNIVKGHFDGRINGQRIRTDTEIWLYVVDGRITSVTIHII | 0.776
19 | DEEEHRLRHFSELFTELFKTGDWKTFAKLMDPEVRTHSEWNGQEFSDHGMEAIVHFFKEFVDKFKNLTFHLTRIEVQGDKVHIDTILIFNGKTFTTRLEFIVVNGRIKEVRYHVK | 1.13
20 | DEEEHRVENMYHRWLHLWETGNEERLTELLDPNTRIVVGDKQIHGREEAHRVLQEFLKRADHIEEFRIHHLRVVGNKVESDTRLRGEIDGRDIDTRVHVHLLVIDGRLREINIQLE | 1.57
21 | DEEEHSAEHAIRILIELLYTGDEDQLERFMDPNTRLHIYFEGHEIHHHGMELISEIFSEIIHRIKNITYRVEDFHLVNGRVHLHGRWNINGKRTKEHWVVLKVDGVWILERVHIHIQ | 1.27
22 | DEEEHSLRLALKILIHTRRTGDEHLLTEMADPNTRLDVNGVEVHGMEIFSKLTHEVVKRADHVEVHVKHIDIYGDKIRVHSEINYRQGDKEHSEKVHLVIKKFNGRWILHFVHIG | 1.48
23 | DEEEHSYEWAHKVSRHTTETGNEDLSRELADPNVRVIIGDKEYHGWKFMTHLLAHLRIKHIIIRSIRVQGNKLDLNEEVHGEIDGKDETFKLDLVILKVNGRWVIKSVRVE | 0.612
24 | DEEEHTAHVAHKLWEDSLHTGNEDNHRKLLDPHARIIVNGRLLHGWEDVEKILKDLGIKVMHMELERIKVVGDKLRIVGHLETRFDGRTIRLREELVVRKFNGRWHIEEINIL | 1.24
25 | DEEEHVAWKIMEVFLEDLLTGDEDMLNRMADPHVRVIINGRENHGRESFEEFVRQIRIEDTRLKHVEIRTIGNKIHIYVHGELRLNINGKRIDRKTTWIFVIQKYDGRWILRFILIDIH | 2.31

Row | Sequence | protease stability score
26 | DEEEHWAKEFLKIESEAMMTGDEESLIELIDPDARIQIGDKKYHGMEFVKYLFEQERKKLGIERVHVEFELKEIHYQGNYMIVDGIIRRSYGDKTETRRVIIYLIKFDGQWVIESIQFL | 0.863
27 | DEEEHWLKHWTDLHLFARITGDEELLMKMLDPDVRFHIGDKESHGREEVARLLIELWIHNQHVRRRIIVNGVSHIHGELDGEINGVRHRTEIEIHILVIDGRIHEIIIKVH | 1.24
28 | DEEEHYLREYLRIVDEELHTGDEKLLAKLLDPEVRVDFNGVVNIGWETVRRHVHHIWMIFRDSKIHDVKVQGDKMIADGRVDVEIIVNGRTHRLELDTNLIFRKVNGRWVMQEIKIG | 2.25
29 | DEEEIALKRIVELWLEVIETGDERITEHLLDPRARFEFENHSRHGRKELTRWMTQLGIKYLDLHRMHIRVFDGRLHVHIDGTEIYDGVRRKSEIRMDVLKVDGKWLVEEYSIRFK | 1.25
30 | DEEEIEIRRIWERELHWRSTGDEKSLIELMDPRTIIEINGREIHGREEADRHVHEFAEKYKNVRVRYFVREIEVQGEFVHVHTEITLDFDGVEIRFFMILIILKIDGRWLSHRVIVH | 0.81
31 | DEEEIHNRLAYRLSHELLETGDWHLMILLADPHVRFEDENHEAHGREEYKEHLNEIHELLGLEKFEVRIHSWRVYDGRVIVHGHILFNGVEFNVETVSLKFNGRWIIEEQRLE | 1.36
32 | DEEEKAHEHMLRVLLHLERTGNEKALTEMADPNVRIDWNGKEDHGMEHLLRHLREIRIKNFELTDERHQGDKIELRGRLHGFIGDKHIILEVELVWRKVNGRWQLTSMHIK | 1.45
33 | DEEEKALDHAWRRFLETLKTGDERKFHELLDPNVQIDWNGRKLHGMHLIVDIIRRVKNLKSHEIHIRHITVIGDKVEFRSDIRGTVDGVDTEIHTRYLFLKIDGQWVLHHEEIV | 2.22
34 | DEEEKATHEAIEEIIETLRTGDEHIMRELMDPHVKVVQGDKEHHGRESFIKWMRLWFERAGVDQIDMRIKDHDSQGEKITLDGSLYVNGVEIDTHIISHKINGRWLNRSVIIQ | 1.22
35 | DEEEKAVKHAVERFVESTQTGNEHKLNELMDPNVRIDFNGVELIGREWFSKLLSEIRSDRFHIHDIRLQGEKADNDTREKGHVDGRTTEMTVRLIWIKFDGKWRLETVIFQ | 1.01
36 | DEEEKDAIMLSEISTHLMSTGDEHETSHNADPNTRLEYGDFEFHGREEFIKIWVEQMEKVKGMTIRLHSIHVQGDKAVSHVKIHVNGVDFHIIYIAEKFNGRWQLRSSIVI | 1.06
37 | DEEEKDAKEIFRLSHDWWRTGDEMLIHMNFDPNVRLRIGDKSSHGREDVARIIVKVYKDFGVKHFEIREVDHQGEKIKLDGVSNFNGKEVKIEISSNKVNGVWVIKEVNIQ | 1.11
38 | DEEEKDIRKALEWFWESFKTGDEDSVRKMLDPDTRIIYGDKEHHGRENASRFIHELKRRMGIKHTEIRLNSMEVQGDKVSFYTILILRFDGREIRIETHIEARKVDGRWFTTSIEFH | 1.42
39 | DEEEKDMRHVLKLWVNEFLTGNEKNLSELMDPNVRVDIDGKQLHGRETLSHKIVEDAREARVRLEVESIRVVNGKAHVDVVLRFHQGDKSDHREIRVVFRKVDGRWLLHSLEVH | 1.37
40 | DEEEKDVQKILKIMIESMKTGDEHTIERLVDPHVRLIINGKRLHGWELFVKIVHHEAEHARVDEIRIDHMHVIDGRAHLYLTIKRTVGDKHIKLDLEFIWSKFDGRWHVEEERRE | 1.14
41 | DEEEKDVRFFIKLLVHSLRTGDERALKHLLDPNVRMDINGREKIGWHQLRELLEEWRMHDIHITSVEVQGEKLFSHGLLEGVIGDKRVELEVEHTARKIDGRWIYTEVKFR | 1.32
42 | DEEEKEAEDFFHDWVHSMLTGDEDTLRRMIDPHVKIQVGDKEFHGMKWATRMYREIRIEDMRLRRVHVINGKADIHSITHTNINGRQEDIHITIIIEKVDGRWILRSVIIR | 2.13
43 | DEEEKEAKHASERINHDFLTGDWKSLEKLADPETRLIVNGRDFHGRERVLHELVRFYHELGVNHFRIRDIRVIGNKIHVDNQIDVGEKHNEMHVISSKVNGRWVLHTVELN | 1.23
44 | DEEEKEAREALEEFIRSVHTGDEDHMVWMFDPNTRIEVGDKKLHGRELAEEFAERWKKHIRLEDVNLTEVHVQGEKVHIRGILHGTVGDKEVRRESEVMMLKVDGRWFLHSIKFK | 0.463
45 | DEEEKEATHYLELFWKLKETGDWDELHRLLDPNVRLRINGKDVHGMERVTEEHLKRMKEIRIRHYHLDELRVQGDFVHIDVRVNGEIDGKRNMIEFHFHARKVDGRWFLHEVRIR | 1.79
46 | DEEEKEAVRHWELFMKAELTGDEEKLKNLADPNTRILFNGVEQIGWEELIRKLREIRIKLHDYRVHQVDRIDGRVILDFRVDIILYVGDKFFKHEIRVHVFILKYDGKWILEYEEIK | 0.736
47 | DEEEKEAYIWLELLLEHERTGNEEEIMHLADPHTRLQFNGVESHGRERFFEHVRHKIRHMRVEIRIRNFEFQGEYAHLHGEDILRIGDKTERIDMRFVLLVVNGRIKSIHIHVH | 0.694
48 | DEEEKEDHKMLHDFIHLWLTGDEEDWSHLADPRTRLILIQGDKVIDRHGMELASEELRRILEEMRVDDFKVEHVEVINGKSKVHGKTDVTFNGKREIIDIHIELHVVNGRMKTVKMVWI | 0.927
49 | DEEEKEFEFAEQVLKESLLTGDERTLKELMDPHVRLEQGDKLYIGRESFIKWWSKRREELGINHLHYRIKEVHIVNGRVRVNSHIEIIIGDKRHEEKVHFVLLKINGRWLMESVHME | 1.46
50 | DEEEKEIKEMLHEYLRAVETGDEHTLHRLMDPHVRIDVNGRQVVGREEWLKILRELGIKVSELIFRDIKFQGDKVNIDAEERLHYNGRTVTTRVTITAWKYDGRWTVQSKKVD | 2.04
